Measured values reported in patent publication US7670806B2, “ADP-ribosyl acceptor hydrolase 3 (ARH3) polypeptides and methods of use” (The United States of America as represented by the …, priority 2005, dated 2010).

B1: mouse ARH3: murine ARH3 amino acid sequence SEQ ID NO: 6 (protein, listed as Mus musculus)
chain: MAVAAAAAATAMSAAGGGGASAARSISRFRGCLAGALLGDCVGAVYEAHDTVSLASVLSHVESLEPDPGTPGSARTETLYYTDDTAMTRALVQSLLAKEAFDEVDMAHRFAQEYKKDPDRGYGAGVITVFKKLLNPKCRDVYEPARAQFNGKGSYGNGGAMRVAGISLAYSSVQDVQKFARLSAQLTHASSLGYNGAILQALAVHLALQGVSSSEHFLEQLLGHMEELEGDAQSVLDAKELGMEERPYSSRLKKVGELLDQDVVSREEVVSELGNGIAAFESVPTAIYCFLRCMEPHPEIPSTFNSLQRTLIYSISLGGDTDTIATMAGAIAGAYYGMEQVPESWQQSCEGFEETDVLAQSLHRVFQESS
B2: ARH3 (E261Q/E262Q): human ARH3 mutant E261Q/E262Q (SEQ ID NO: 3) (protein, listed as Homo sapiens)
chain: MAAAAMAAAAGGGAGAARSLSRFRGCLAGALLGDCVGSFYEAHDTVDLTSVLRHVQSLEPDPGTPGSERTEALYYTDDTAMARALVQSLLAKEAFDEVDMAHRFAQEYKKDPDRGYGAGVVTVFKKLLNPKCRDVFEPARAQFNGKGSYGNGGAMRVAGISLAYSSVQDVQKFARLSAQLTHASSLGYNGAILQALAVHLALQGESSSEHFLKQLLGHMEDLEGDAQSVLDARELGMEERPYSSRLKKIGELLDQASVTRQQVVSELGNGIAAFESVPTAIYCFLRCMEPDPEIPSAFNSLQRTLIYSISLGGDTDTIATMAGAIAGAYYGMDQVPESWQQSCEGYEETDILAQSLHRVFQKS
B3: ARH3 (E238Q/E239Q): human ARH3 mutant E238Q/E239Q (SEQ ID NO: 4) (protein, listed as Homo sapiens)
chain: MAAAAMAAAAGGGAGAARSLSRFRGCLAGALLGDCVGSFYEAHDTVDLTSVLRHVQSLEPDPGTPGSERTEALYYTDDTAMARALVQSLLAKEAFDEVDMAHRFAQEYKKDPDRGYGAGVVTVFKKLLNPKCRDVFEPARAQFNGKGSYGNGGAMRVAGISLAYSSVQDVQKFARLSAQLTHASSLGYNGAILQALAVHLALQGESSSEHFLKQLLGHMEDLEGDAQSVLDARELGMQQRPYSSRLKKIGELLDQASVTREEVVSELGNGIAAFESVPTAIYCFLRCMEPDPEIPSAFNSLQRTLIYSISLGGDTDTIATMAGAIAGAYYGMDQVPESWQQSCEGYEETDILAQSLHRVFQKS
B4: ARH2: recombinant mouse or human ARH2, structurally related 39-kDa ADP-ribose-binding protein (protein, listed as Homo sapiens)
chain: MEKFKAAMLLGSVGDALGYRNVCKENSTVGMKIQEELQRSGGLDHLVLSPGEWPVSDNTIMHIATAEALTTDYWCLDDLYREMVRCYVEIVEKLPERRPDPATIEGCAQLKPNNYLLAWHTPFNEKGSGFGAATKAMCIGLRYWKPERLETLIEVSVECGRMTHNHPTGFLGSLCTALFVSFAAQGKPLVQWGRDMLRAVPLAEEYCRKTIRHTAEYQEHWFYFEAKWQFYLEERKISKDSENKAIFPDNYDAEEREKTYRKWSSEGRGGRRGHDAPMIAYDALLAAGNSWTELCHRAMFHGGESAATGTIAGCLFGLLYGLDLVPKGLYQDLEDKEKLEDLGAALYRLSTEEK

How the values were obtained:
[1] = Poly(ADP-ribose) hydrolysis (autoradiography, high resolution PAGE, HPLC); assay type: biochemical; conditions: for Poly(ADP-ribose) hydrolysis (in words): [32P]poly(ADP-ribose) or poly(ADP-ribose)PARP, 37° C., autoradiography / PAGE / HPLC; for Release of [14C]ADP-ribose from [14C]poly(ADP-ribose)PARP relative to wild-type ARH3: 50 nM human ARH3 (wild-type or mutant), ~2 μM ADP-ribose, HPLC C18
Procedure: Poly(ADP-ribose) hydrolysis by autoradiography. [^32P]poly(ADP-ribose)PARP (500 ng of PARP with poly(ADP-ribose) was incubated (37° C., 2 h) with 2 μM ARH in 25 μl of 50 mM potassium phosphate buffer, pH 7.5, with or without 10 mM MgCl2 and/or 5 mM DTT. Reactions were stopped by adding 6 μl of 5× Laemmli buffer. Samples (20 μl) of proteins were separated by SDS-PAGE in 4-20% gels and transferred to nitrocellulose membranes that were exposed to X-ray film (Kodak) for 10 h.
Hydrolysis of poly(ADP-ribose) by PARG and ARH3. Purified [^32P] poly(ADP-ribose) (5.5×10^5 cpm, ˜300 nM ADP-ribose) was incubated for the indicated time at 37° C. in 25 μl of 50 mM potassium phosphate, pH 7.5, containing 10 mM MgCl2 and 5 mM DTT with enzyme or other additions as indicated and terminated by addition of 25 μl of 2× electrophoresis buffer (Invitrogen). [^32P]AMP was generated by incubation (37° C., 3 h) of 10 μM [^32P] NAD (10 μCi/reaction) with pyrophosphatase (40 units/mg from SIGMA, 1 mg/ml) in 25 μl of 50 mM KPO4, pH 7.5, and 10 mM MgCl2. [^32P] ADP-ribose was generated in a 25 μl mixture containing 50 mM KPO4, pH 7.5, 25 μg of activated CTA, 10 μM [^32P] NAD (10 μCi/reaction), 10 mM MgCl2, and 5 mM DTT, which was incubated at 30° C. overnight. [^32P] phosphoribosyl-AMP was generated by incubation (37° C., 3 h) of [^32P]poly(ADP-ribose) (5.5×10^5 cpm, ˜300 nM ADP-ribose) with Crotalus adamanteus phosphodiesterase (10 mU/reaction), 25 μl of 50 mM KPO4, pH 7.5, 10 mM MgCl2, and 5 mM DTT. Identities of AMP and ADP-ribose standards were confirmed by HPLC on C18 and SAX columns respectively.
High resolution Polyacrylamide Gel Electrophoresis (PAGE). Polyacrylamide (20%) gels (20×20×0.15 cm) containing polyacrylamide and bis(acrylamide), in a ratio of 19:1, 100 mM Tris-borate, pH 8.3, 2 mM EDTA, 4.4 mM ammonium persulfate, and 3.4 mM TEMED with electrophoresis carried out for 2 h at 400V with 50 mM Tris-borate, pH 8.3, 1 mM EDTA, before application of samples (15 μl) were used for analysis of poly(ADP-ribose) degradation. Subsequent electrophoresis at 400V was stopped when bromophenol blue (BPB) had moved 9 cm from the origin. Gels were exposed to X-ray films (Kodak).
HPLC analysis. HPLC, Hewlett-Packard series 1100 equipped with a diode-array spectrophotometric detector set at 254 nm, was used for separation of reaction products. For anion exchange perfusion chromatography, Zorbax SAX column (4.6×250 mm; DuPont, Wilmington Del.) was washed with 20 mM potassium phosphate, pH 4.5, for 30 min, followed by a linear gradient of 0-1M NaCl in the same buffer for 10 min (30-40 min), then same buffer with 1M NaCl for 10 min (40-50 min) at a flow rate of 1 ml/min. Nicotinamide was eluted at 3 min, NAD at 10 min, and ADP-ribose at 40 min. For reverse phase, Discovery C18 column (4.6×250 mm; SUPELCO, Bellefonte Pa.) was used. Samples were separated isocratically with 100 mM potassium phosphate, pH 6.0 containing 7% methanol at a same flow rate of 1 ml/min. ADP-ribose was eluted at 6 min, NAD at 8 min, nicotinamide 9 min.
Poly(ADP-ribose)PARP was used as substrate to assay potential poly(ADP-ribose) hydrolase activities of recombinant ARH1, 2 or 3. Products were identified by autoradiography and HPLC. Fractions (1 ml) were collected for liquid scintillation counting to quantify [^14C]ADP-ribose, which was eluted in fractions from 34 min to 43 min. Because ARH1 activity may require both DTT and Mg^2+, depending on species (Takada et al. (1993) J. Biol. Chem. 268:17837-17843; Moss et al. (1992) J. Biol. Chem. 267:10481-10488), these reactions were performed with or without 10 mM MgCl2, and/or 5 mM DTT. […] Degradation of [^32P]poly(ADP-ribose) by ARH3 was enhanced by 10 mM MgCl2 (FIG. 4A). Data were similar with mouse ARH3.
Samples of [^14C] ADP-ribosylated PARP (250 ng, 15,000 cpm, ˜850 nM ADP-ribose) were incubated at 37° C. (total volume, 100 μl) with human ARH3 as indicated. […]

[2] = Hydrolysis of O-acetyl-[14C]ADP-ribose by ARH proteins / PARG (RP-HPLC); assay type: biochemical; conditions: 1.5 pmol wild type or mutant human ARH3 or 20 mU PARG, 2 h at 30° C.; mouse ARH1, 2, 3
Procedure: FIG. 13A is a graph illustrating the results from incubation of 1.5 pmol of mouse ARH3 with or without 5 mM DTT and/or 10 mM MgCl2 as described in FIG. 11B with incubation for 1 h at 30° C. FIG. 13B is a graph illustrating the results from incubation of 1.5 pmol of wild type or mutant human (D77-78) ARH3 or 20 mU of PARG for 2 h at 30° C. *D77,78, assays incubated with 15 pmol of mutant human ARH3 (D77, D78).
FIG. 14A is a graph of the results from incubation with the indicated amount of mouse ARH1, 2, or 3 for 2 h at 30° C. FIG. 14B is a graph of the results from incubation with 230 pmol of mouse ARH1 at 30° C. for the indicated time.
Mouse ARH3 (2 pmol) and 2.5 μM O-acetyl-[^14C]ADP-ribose (5,000 cpm) in 200 μl of buffer containing 50 mM potassium phosphate (pH 7.0), 10 mM MgCl2 and 5 mM DTT were incubated for 2 h at 30° C., before separation of substrate and products using RP-HPLC as described below.
Hydrolysis of O-acetyl-[^14C]ADP-ribose catalyzed by ARH3. Assays containing the indicated concentration of O-acetyl-[^14C]-ADP-ribose (0.1 to 2 nmol, 1,000 to 20,000 cpm) and 1.5 pmol of ARH3 in 200 μl of buffer (50 mM KPO4 (pH 7.0), 10 mM MgCl2, 5 mM DTT) were incubated at 30° C. for 20 min. Substrate and products were separated using RP-HPLC. Amounts of product were corrected for ADP-ribose produced in the absence of ARH3 before calculation of hydrolysis rates.
Because O-acetyl-ADP-ribose was known to be hydrolyzed at alkaline pH Tanny and Moazed (2001), Proc Natl Acad Sci USA. 98(2):415-20, Epub Dec. 26, 2000), it was generated at pH 7.0 in the presence of [^14C-adenine] β-NAD, Sir2, and acetylated histone H3 peptide (FIG. 11A), and the products of Sir2 and ARH3 were analyzed using reverse-phase HPLC at the same pH (FIGS. 11A,B). The products of the ARH3-catalyzed reaction were also analyzed by high resolution-polyacrylamide gel electrophoresis (FIG. 11C). O-acetyl-[^14C]ADP-ribose hydrolase activity was time and ARH3 dependent (FIG. 12) and essentially completely dependent on Mg^2+ (FIG. 13A).
O-acetyl-ADP-ribose hydrolysis by ARH1 was time and ARH1 dependent (FIG. 14b).

| Molecule | Poly(ADP-ribose) hydrolysis (in words) [1] | Release of [14C]ADP-ribose from [14C]poly(ADP-ribose)PARP relative to wild-type ARH3 [1] [%] | O-acetyl-ADP-ribose hydrolysis (in words) [2] |
| --- | --- | --- | --- |
| B1 | similar |  |  |
| B2 | catalytic activities similar to that of the wild-type enzyme | ~98 | rate similar to wild type |
| B3 | catalytic activities similar to that of the wild-type enzyme | ~97 | rate similar to wild type |
| B4 | did not |  | appeared to be inactive |
